# Measured values reported in the supplement of paper PMC10724198.
# ± gives the standard deviation of the averaged measurements.
# Tested on: Saccharomyces cerevisiae
# Test: protein stability index of tFT-peptide fusion (C-terminal peptide) (PSI (0-1 scale)); higher = more stable (slower turnover)
# Conditions: genetic background: das1 deletion; temperature: 30 C
# Experimental: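 MPS profiling in S. cerevisiae of the yeast C-terminome library: the last 12 aa of each annotated ORF are fused to the C-terminus of a sfGFP-mCherry timer, after a GGGS linker. Cells are FACS-sorted into 8 mCherry/sfGFP bins and deep-sequenced. PSI runs from 0 (unstable) to 1 (stable); wild type and das1Δ backgrounds, two technical replicates each.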
row,Sequence,protein stability index
1,KGHVHSPRHNND [YOR379C C-terminal 12 aa],0.7103 ± 0.0065
2,KGTCGCGESFMV [ISA1 C-terminal 12 aa],0.71 ± 0.0094
3,KHIDYRHAPGNI [RRN10 C-terminal 12 aa],0.6875 ± 0.0066
4,KHKNILSFNNNT [YDR543C C-terminal 12 aa],0.687 ± 0.02
5,KHPRPFRQEHRC [YLR162W C-terminal 12 aa],0.6986 ± 0.0027
6,KHQFLTKAKRFF [FET3 C-terminal 12 aa],0.693 ± 0.0079
7,KHVSGKILGFVY [RPS22A C-terminal 12 aa],0.631 ± 0.045
8,KIPKTYSELSCL [DUN1 C-terminal 12 aa],0.693 ± 0.042
9,KKLHEEYFGEDK [CRS1 C-terminal 12 aa],0.673 ± 0.031
10,KKMEARGQSIWV [RPN9 C-terminal 12 aa],0.713 ± 0.0075
11,KKNGYIYFYTRC [UBP14 C-terminal 12 aa],0.69 ± 0.0087
12,KKQKVVPLPTDI [SMM1 C-terminal 12 aa],0.6919 ± 0.0007
13,KKSKPRANKLTI [ECM2 C-terminal 12 aa],0.713 ± 0.02
14,KKYKFKLKFIKN [RNY1 C-terminal 12 aa],0.7118 ± 0.006
15,KLDLPNVFHKKG [CHS2 C-terminal 12 aa],0.713 ± 0.027
16,KLMVEEINLDID [FZO1 C-terminal 12 aa],0.7048 ± 0.0045
17,KLRNSNNTRAED [AVO2 C-terminal 12 aa],0.67 ± 0.0067
18,KLTSTVTLNLLY [YGR107W C-terminal 12 aa],0.692 ± 0.019
19,KLYILKHLGSKQ [RRG9 C-terminal 12 aa],0.681 ± 0.037
20,KMVLSHMKEKKD [YGL140C C-terminal 12 aa],0.688 ± 0.011
21,KNEDSEVEDDLI [CUS2 C-terminal 12 aa],0.703 ± 0.042

row,Sequence,protein stability index
1,KNGKVDPLKNFK [DBP9 C-terminal 12 aa],0.701 ± 0.015
2,KNSGEKLVAVLN [YCR102C C-terminal 12 aa],0.6723 ± 0.001
3,KPDVERVYKENT [FAA4 C-terminal 12 aa],0.701 ± 0.025
4,KPEFVDIINSRN [TPI1 C-terminal 12 aa],0.7145 ± 0.0052
5,KPLSKPAPDLDY [CWC25 C-terminal 12 aa],0.66 ± 0.024
6,KPRKKAKALPKT [RTT109 C-terminal 12 aa],0.689 ± 0.032
7,KPRWYRIWNFWC [GAP1 C-terminal 12 aa],0.803 ± 0.017
8,KQIDVFNGPKRV [MIG2 C-terminal 12 aa],0.713 ± 0.0091
9,KQNIPRKPNVDI [BNS1 C-terminal 12 aa],0.6875 ± 0.0057
10,KRDIVFAASLYL [SKI2 C-terminal 12 aa],0.6855 ± 0.0061
11,KRDKLKKNCVIM [YGL082W C-terminal 12 aa],0.74 ± 0.016
12,KREKTMRNSMLP [YIR036W-A C-terminal 12 aa],0.684 ± 0.0091
13,KRLTSRLNKKHK [SPN1 C-terminal 12 aa],0.6937 ± 0.0067
14,KRSLTLPVGMKI [AIM44 C-terminal 12 aa],0.683 ± 0.026
15,KRYTVKKALAKA [RPL14A C-terminal 12 aa],0.6258 ± 0.0061
16,KSADPDAMDTTE [RVB2 C-terminal 12 aa],0.702 ± 0.016
17,KSAKATKASQEL [HTA1 C-terminal 12 aa],0.691 ± 0.011
18,KSEIDTLKQDQK [TYE7 C-terminal 12 aa],0.656 ± 0.011
19,KTATTLPGRRFV [LUC7 C-terminal 12 aa],0.6923 ± 0.0011
20,KVHRKKVPGCTI [YGR011W C-terminal 12 aa],0.697 ± 0.015
21,KVIFKDRPLPIM [CTF8 C-terminal 12 aa],0.643 ± 0.032

row,Sequence,protein stability index
1,KVYDELKKQGLV [PRP9 C-terminal 12 aa],0.693 ± 0.017
2,KYNSQKRATTPA [COQ4 C-terminal 12 aa],0.712 ± 0.027
3,LAFRAHTMPNAP [ATO3 C-terminal 12 aa],0.699 ± 0.0097
4,LATWDKQGNLKY [SRN2 C-terminal 12 aa],0.724 ± 0.012
5,LCLLESLDCLAK [PMT7 C-terminal 12 aa],0.6692 ± 0.0024
6,LCPVFFTWTNLR [YSR3 C-terminal 12 aa],0.656 ± 0.008
7,LDKEMADYFEKK [YRA1 C-terminal 12 aa],0.693 ± 0.013
8,LEDHTPPEDKPN [QCR10 C-terminal 12 aa],0.718 ± 0.021
9,LEEFLVRGTNNQ [ATP25 C-terminal 12 aa],0.711 ± 0.018
10,LEEPYKPQRQRC [YPL088W C-terminal 12 aa],0.6798 ± 0.0049
11,LFTCTDPNDTIE [MMS4 C-terminal 12 aa],0.721 ± 0.027
12,LFVTDGSLLLDL [EDC3 C-terminal 12 aa],0.703 ± 0.014
13,LGMINTVVSLDR [YBR221W-A C-terminal 12 aa],0.691 ± 0.022
14,LIAEILLARNLI [HOM2 C-terminal 12 aa],0.71 ± 0.0084
15,LIGFGNQVSKAL [BUD25 C-terminal 12 aa],0.703 ± 0.03
16,LISCCCCCFRRC [YNL097W-A C-terminal 12 aa],0.6974 ± 0.004
17,LKAVCPPDAGFA [YOR387C C-terminal 12 aa],0.7086 ± 0.0046
18,LKHFIKVFSSKL [ARR1 C-terminal 12 aa],0.825 ± 0.013
19,LKITDDLARKGF [TGL2 C-terminal 12 aa],0.7205 ± 0.0035
20,LKKKLYTLEQKK [KEL2 C-terminal 12 aa],0.694 ± 0.02
21,LKLNHSFATIFK [MCM21 C-terminal 12 aa],0.684 ± 0.018

row,Sequence,protein stability index
1,LKQLDNLKSQLN [ARG4 C-terminal 12 aa],0.7 ± 0.013
2,LLNSRATQDVVC [VMA3 C-terminal 12 aa],0.6342 ± 0.0054
3,LLQSGRYGGNRS [RCI37 C-terminal 12 aa],0.683 ± 0.011
4,LLSVDGWRTDQL [QRI7 C-terminal 12 aa],0.721 ± 0.014
5,LMGAALAAVIFL [FIT1 C-terminal 12 aa],0.672 ± 0.018
6,LNFYNDNFGSQF [STP1 C-terminal 12 aa],0.723 ± 0.0098
7,LNKEALKHNMLK [HSH49 C-terminal 12 aa],0.691 ± 0.048
8,LNKKSSVKILLY [CMS1 C-terminal 12 aa],0.693 ± 0.01
9,LNWLIKGILTED [HFI1 C-terminal 12 aa],0.753 ± 0.033
10,LPSERSRLSYTN [CBP3 C-terminal 12 aa],0.703 ± 0.026
11,LPSPRFFSPITL [YER158W-A C-terminal 12 aa],0.685 ± 0.024
12,LQFILPSMNLAN [GPB1 C-terminal 12 aa],0.692 ± 0.0087
13,LQKFYLQVSTIS [YFR054C C-terminal 12 aa],0.456 ± 0.0082
14,LQPMEAFKYDRS [BIO2 C-terminal 12 aa],0.71 ± 0.0075
15,LRASGDDSDPAY [PFA5 C-terminal 12 aa],0.7076 ± 0.0054
16,LRKKQVKKKVKS [SLX8 C-terminal 12 aa],0.6885 ± 0.0062
17,LRRFIICQLHLI [YBR027C C-terminal 12 aa],0.523 ± 0.02
18,LRYYVSKLINFK [YNL324W C-terminal 12 aa],0.70435 ± 0.00064
19,LSDSHYELNAES [PMT5 C-terminal 12 aa],0.712 ± 0.033
